Patent US20070207967A1, “Peptide Inhibitors of Matrix Metalloproteinase Activity” (CTT CANCER TARGETING TECHNOLOGIES OY, priority 2004, published 2007)

Molecular target: β2 integrin on THP-1 cells (human) (UniProt P05107)
Test: THP-1 cell binding to immobilized KIM127 (competitor) with C domain 50 µg/ml

Sequence of β2 integrin on THP-1 cells (human) (P05107 23-769): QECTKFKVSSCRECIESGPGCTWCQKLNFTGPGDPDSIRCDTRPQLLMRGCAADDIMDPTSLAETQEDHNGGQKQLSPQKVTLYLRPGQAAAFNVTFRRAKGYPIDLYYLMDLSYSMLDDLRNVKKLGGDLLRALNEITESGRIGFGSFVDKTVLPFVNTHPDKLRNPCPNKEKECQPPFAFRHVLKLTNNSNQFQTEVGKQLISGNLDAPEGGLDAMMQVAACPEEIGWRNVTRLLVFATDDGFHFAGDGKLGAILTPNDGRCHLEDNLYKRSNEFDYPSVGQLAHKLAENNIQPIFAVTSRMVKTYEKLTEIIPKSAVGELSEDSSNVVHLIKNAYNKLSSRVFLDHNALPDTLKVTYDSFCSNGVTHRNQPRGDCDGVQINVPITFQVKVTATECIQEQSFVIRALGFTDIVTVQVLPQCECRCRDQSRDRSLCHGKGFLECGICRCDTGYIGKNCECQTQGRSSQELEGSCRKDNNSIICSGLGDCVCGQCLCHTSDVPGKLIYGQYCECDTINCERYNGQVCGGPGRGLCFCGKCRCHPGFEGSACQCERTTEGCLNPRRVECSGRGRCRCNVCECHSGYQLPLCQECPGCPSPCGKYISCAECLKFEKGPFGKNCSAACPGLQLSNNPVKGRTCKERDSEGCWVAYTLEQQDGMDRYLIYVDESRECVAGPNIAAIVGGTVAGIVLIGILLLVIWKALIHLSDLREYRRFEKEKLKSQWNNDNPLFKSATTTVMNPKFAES

- % inhibition of THP-1 cell binding to KIM127: 40%
Substance: recombinant MMP-9 C-terminal hemopexin-like domain (Asp494-Asp688) (from UniProt P14780 513-707)
